Experimental data as given in PMC6992696, “Supramolecular tholos-like architecture constituted by archaeal proteins without functional annotation” (Scientific Reports, 2020).

B1: PF0014 from Pyrococcus furiosus (natural protein, UniProt Q8U4R0 1-128, looked up)
chain: MVVEIPLLSGIARRTLDALMRNPIRTVEIRNARNYMTLEKVKEGDLVFLTYESLEDVMRGTEGIIAMVTRMEKSHQRVPWEESDEREISICRVQLKLVGLGRVVEVQEKNGVVFVKVREMLHHEISMG
notes: PF0014, Pyrococcus furiosus, an archaeal protein without functional annotation; Monomeric by HS-AFM when isolated; ten copies in the complex with PbaA
B2: N-terminally hexahistidine-tagged PbaA (natural protein, Pyrococcus furiosus)
chain: MEEKKPVNLVLPEVENAIFIEGYPGVGLVGHIAANFLAKELDMDLIGYVDSLFIPPMSLILEGRPTPPLRFYGKNNIIIAIADIFLPPTLVNEIAKEIVNYLKKVNAEKVISLAGMGIGFFKDTFEVWGIGGSEEENKELESLGVKILKYGSITGMSGKLLWEASRAGLKSYVLLGETFGDRPDPRAAANVVEVLNKMLGLNVSVEPLLKEAEMIEEQLRRMHEQMEEARRKMERQYETMYL
notes: PbaA (PF0015), Pyrococcus furiosus; The His tag was labelled with a monoclonal anti-histidine-tag antibody (R&D Systems) in the cryo-EM sample; the antibody is only a tool; May be the same preparation as m1 if the tag was never removed there; not shown: His6, N-terminal, kept
B3: PbaA (PF0015) from Pyrococcus furiosus, full-length (natural protein, UniProt Q8U4Q9 1-242, looked up)
chain: B2 chain
notes: PbaA (PF0015), Pyrococcus furiosus, full-length; cloned from P. furiosus genomic DNA; Homopentameric ring when isolated; two pentameric rings in the 10:10 complex with PF0014; also called full-length PbaA; PbaA pentamer

What was measured:
[1] = molecular target: PbaA_(CΔ30), mutant PbaA with deletion of 30 C-terminal amino acid residues (Pyrococcus furiosus); test: SEC + other: negative stain EM; PbaA_(CΔ30) alone, in the absence of PF0014
[2] = molecular target: PbaA_(CΔ30), mutant PbaA with deletion of 30 C-terminal amino acid residues (Pyrococcus furiosus); test: cryo-EM structure; purified PbaA_(CΔ30)/PF0014 complex; map EMD-0755 at 7.3 Å with D5 symmetry and 8.5 Å with C1 symmetry
[3] = molecular target: B3; test: native MS; purified PbaA/PF0014 complex (20 μM) exchanged into 150 mM ammonium acetate pH 9.0, 2-fold diluted, nanoflow ESI, SYNAPT G2-Si; conditions: both partners purified
[4] = molecular target: the molecule itself; test: cryo-EM structure; hexahistidine-tagged PbaA/Trx-PF0014 complex treated with excess anti-histidine-tag monoclonal antibody for 2 h at 4 °C; map at 14 Å, C1 symmetry
[5] = molecular target: the molecule itself; test: HS-AFM; isolated proteins, top views on APTES-mica, tapping mode, room temperature

Q: With “PbaA_(CΔ30), mutant PbaA with deletion of 30 C-terminal amino acid residues (domain or fragment)” as the molecule, how does the stoichiometry N [1] read?
A: 14 protomers

Q: And the stoichiometry N [2]?
A: 5 protomers

Q: For B1, which “stoichiometry N” value [3] is on record?
A: 1 PF0014 per PbaA (10:10)

Q: B2 was tested. Which “stoichiometry N” value [4] did it give?
A: 5 protomers

Q: B3 was tested. Which “stoichiometry N” value [5] did it give?
A: 5 protomers
